Laboratory results reported in patent US6429014B1, “Monoterpene synthases from grand fir (Abies grandis)” (Washington State University Research Foundation, priority 1997, dated 2002).

Assay: Terpene synthase assay and GC-MS / chiral GC product identification of recombinant enzymes expressed from pSBET in E. coli BL21(DE3) (Example 11)
Type: biochemical
Settings: extracts of induced cells
Experimental: For functional expression, bacterial strains E. coli BL21(DE3)/pSAG2(M), E. coli BL21(DE3)/pSAG2(R), E. coli BL21(DE3)/pSAG3(R), E. coli BL21(DE3)/pSAG6(M), E. coli BL21(DE3/pSAG6(R), E. coli BL21(DE3)/pSAG8(M), E. coli BL21(DE3)/pSAG9(M), E. coli BL21(DE3)/pSAG11(M) and E. coli BL21(DE3)/SAG11(R) were grown to A600=0.5 at 37° C. in 5 ml of Luria-Bertani medium (Sambrook, J., Fritsch, E. F., and Maniatis, T. (1989) Molecular Cloning: A Laboratory Manual, 2nd Ed., pp. 7.20-7.43, Cold Spring Harbor, N.Y.) supplemented with 30 μg kanamycin/ml. Cultures were then induced by addition of 1 mM isopropyl-1-thio-β-D-galactopyranoside and grown for another 12 h at 20° C. Cells were harvested by centrifugation and disrupted by sonication followed by centrifugation, and the resulting soluble enzyme preparations were assayed for monoterpene, sesquiterpene and diterpene synthase activity using the appropriate radiolabeled substrate as described previously (Bohlmann, J., Steele, C. L., and Croteau, R. (1997) J. Biol. Chem. 272, 21784-21792). This assay involves the isolation and separation of terpene olefins and oxygenated terpenes by column chromatography on silica, followed by scintillation counting to determine conversion rate. GC-MS analysis is employed for product identification, by comparison of retention times and mass spectra to those of authentic standards (Bohlmann, J., Steele, C. L., and Croteau, R. (1997) J. Biol Chem. 272, 21784-21792); assignment of absolute configuration is based upon chiral column capillary GC and matching of retention time to that of the corresponding enantiomer (Lewinsohn, E., Savage, T. J., Gijzen, M., and Croteau, R. (1993) Phytochem. Anal. 4, 220-225). To insure production of sufficient material for identification, the standard assay (Bohlmann, J., Steele, C. L., and Croteau, R. (1997) J. Biol. Chem. 272, 21784-21792) was scaled up by a factor of 20.
Initially, the four pSBET plasmids pSAG6(M), pSAG8(M), pSAG9(M) and pSAG11(M), containing the full-length cDNA inserts of ag6 (SEQ ID NO:64), ag8 (SEQ ID NO:66), ag9 (SEQ ID NO:77) and ag11 (SEQ ID NO:68), respectively, were expressed in E. coli BL21(DE3). Extracts of the induced, transformed bacterial cells were assayed for monoterpene, sesquiterpene and diterpene synthase activity using the corresponding labeled C10, C15 and C20 prenyl diphosphate substrates (Bohlmann, J., Steele, C. L., and Croteau, R. (1997) J. Biol. Chem. 272, 21784-21792). […] Since it is known that the relatively large amino-terminal transit peptide of plant terpene synthases can impair expression of the functional preprotein in E. coli and promote the formation of intractable inclusion bodies (Williams, D. C., McGarvey, D. J., Katahira, E. J., and Croteau, R. (1998) Biochemisiry 37, 12213-12220), the“pseudomature” forms of ag6 (SEQ ID NO:64) and ag11 (SEQ ID NO:68) were prepared by truncation of the cDNAs to insert a starting methionine immediately upstream of their tandem arginine elements (R59R 60 for ag6 (SEQ ID NO:64), R^71R^72 for ag11 (SEQ ID NO:68)) for expression in E. coli BL21(DE3)/pSAG6(R) and E. coli BL21(DE3)/pSAG11(R). Similar truncations of previously characterized ag2.2 (SEQ ID NO:1) (myrcene synthase, R^64R^65) and ag3.18 (SEQ ID NO:3) ((−)-pinene synthase, (SEQ ID NO:5) R^64R^65) (Bohlmann, J., Steele, C. L., and Croteau, R. (1997) J. Biol. Chem. 272, 21784-21792) were prepared for expression from pSBET as controls for the possible alteration of product yield and distribution resulting from truncation.
Monoterpenes generated at preparative scale from geranyl diphosphate by the recombinant enzymes encoded by ag6 (SEQ ID NO:64), ag8 (SEQ ID NO:66), ag9 (SEQ ID NO:77) and ag11 (SEQ ID NO:68) were analyzed by GC-MS and chiral phase (β-cyclodextrin) capillary GC, and identified by comparison of retention times and mass spectra to authentic standards (FIGS. 6-9). […] The enzyme encoded by ag6 (SEQ ID NO:65) is therefore designated as (−)-1S,4R-camphene synthase. […]

B1: AG3.18: recombinant (−)-pinene synthase from Grand fir encoded by cDNA clone AG3.18 (SEQ ID NO:3; protein SEQ ID NO:4) (protein, listed as Abies grandis)
chain: MALVSTAPLASKSCLHKSLISSTHELKALSRTIPALGMSRRGKSITPSISMSSTTVVTDDGVRRRMGDFHSNLWDDDVIQSLPTAYEEKSYLERAEKLIGEVKNMFNSMSLEDGELMSPLNDLIQRLWIVDSLERLGIHRHFKDEIKSALDYVYSYWGENGIGCGRESVVTDLNSTALGLRTLRLHGYPVSSDVFKAFKGQNGQFSCSENIQTDEEIRGVLNLFRASLIAFPGEKIMDEAEIFSTKYLKEALQKIPVSSLSREIGDVLEYGWHTYLPRLEARNYIQVFGQDTENTKSYVKSKKLLELAKLEFNIFQSLQKRELESLVRWWKESGFPEMTFCRHRHVEYYTLASCIAFEPQHSGFRLGFAKTCHLITVLDDMYDTFGTVDELELFTATMKRWDPSSIDCLPEYMKGVYIAVYDTVNEMAREAEEAQGRDTLTYAREAWEAYIDSYMQEARWIATGYLPSFDEYYENGKVSCGHRISALQPILTMDIPFPDHILKEVDFPSKLNDLACAILRLRGDTRCYKADRARGEEASSISCYMKDNPGVSEEDALDHINAMISDVIKGLNWELLKPDINVPISAKKHAFDIARAFHYGYKYRDGYSVANVETKSLVTRTLLESVPL
terpene synthase activity on expression from pSBET in E. coli BL21(DE3): high level expression of activity
